Results from patent US20240150475A1 (Molecular Partners, published 2024).

T1: biotinylated extracellular domains of human CD123 with C-terminal Fc tag and Avi tag (bio.hCD123-Fc(kih)-Avi) (human, UniProt P26951 19-303, biotinylated with BirA-GST (Avi tag))
T1 construct: Bought from Evitria; the second Fc chain and the number of CD123 arms are not described; also called biotinylated hCD123; recombinant human CD123 target; not shown: Avi tag
T1 sequence: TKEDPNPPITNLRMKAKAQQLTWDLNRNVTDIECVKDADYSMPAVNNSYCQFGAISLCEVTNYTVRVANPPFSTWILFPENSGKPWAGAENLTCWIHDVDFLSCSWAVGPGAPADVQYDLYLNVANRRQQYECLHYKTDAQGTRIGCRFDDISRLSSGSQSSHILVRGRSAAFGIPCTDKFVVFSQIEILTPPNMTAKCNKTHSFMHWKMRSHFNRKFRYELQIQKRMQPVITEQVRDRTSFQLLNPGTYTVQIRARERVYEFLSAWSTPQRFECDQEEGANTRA


What was measured:
[1] = target: T1, biotinylated extracellular domains of …; test: SPR (ProteOn XPR36), bio.hCD123 immobilised on NLC chip, DARPin in TCE format injected at 50 nM, single trace
Method: SPR measurements were performed using a ProteOn XPR36 instrument (BioRad). The running buffer was PBS pH 7.4 containing 0.005% Tween 20® (PBST). The bio.hCD123 target was immobilized on a NLC chips (BioRad) to a level of 600 RU. The interactions of the 96well purified CD123-specific ankyrin repeat proteins in TCE format to bio. hCD123 were measured by injecting the DARPin® molecules at 50 nM with an association of 120 s and dissociation of 1200 s using a constant flow of 100 μl/min. Some DARPin proteins were reinjected using a dissociation of 600 s. The target was regenerated between the individual measurements using 10 mM Glycine pH2.5. The signals were double referenced against the running buffer (PBST) treated control lane of L1 and A6.
Dissociation constants (KD) were calculated from the estimated on- and off-rates using standard procedures known to the person skilled in the art. KD values were determined by single trace SPR. The values in Table 2a are averages of multiple replicates.

[2] = target: T2, CD123 expressed on the surface of Molm-13 (Molm-13 N1) tumor cells (human, UniProt P26951 19-378); test: flow cytometry on CD123-expressing Molm-13 N1 tumor cells, monospecific format
T2 construct: whole, on cells; also called CD123-expressing tumor cells; CD123 expressed on tumor cells
Method: Binding of binding proteins of the invention to CD123 expressed on the surface of tumor cells was analyzed by fluorescence activated cell sorting (FACS) flow cytometry. For this purpose, CD123 expressing tumor cells (Molm-13 N1) were seeded at 100′000 cells per well in a 96 well plate. DARPin protein #2, DARPin protein #3, DARPin protein #9, DARPin protein #12, DARPin protein #13 and DARPin protein #14, in monospecific format, were titrated down in 1:5 dilution ratio starting at 2000 nM. Tumor cells were resuspended with diluted DARPin proteins and incubated for 60 minutes at 4° C. The assay was performed in PBS including 2% fetal bovine serum without human serum albumin (HSA). After washing twice with Phosphate Buffer saline (PBS), DARPin® protein specific tumor cell binding was detected by adding unlabeled primary anti-rabbit DARPin® antibody (anti-rabbit 1-1-1 antibody, CePower) at 2 ug/ml. An incubation step of at least 30 minutes at 4° C. followed. Afterwards, cells were washed with PBS and a secondary goat anti-rabbit antibody labelled with Alexa Fluor 488 antibody (ThermoFisher) at 2 ug/ml was added. The same incubation conditions applied. Finally, the cells were washed twice and resuspended in Cytofix fixation buffer (BD Biosciences) for 15 min at room temperature (RT).

[3] = target: T1, biotinylated extracellular domains of …; test: SPR (ProteOn), bio.hCD123 on neutravidin-coated GLC chip, DARPin 100-1.2 nM, 1:1 Langmuir fit
Method: Moreover, the binding affinities of three additional purified ankyrin repeat proteins on recombinant human CD123 target were measured and analyzed with a procedure as described above for DARPin proteins #1, #3 to #9. Briefly, neutravidin was precoated on a GLC chip (BioRad) to a level of 6000 RU. In a second step, bio.hCD123 was immobilized to a level of 1030 RU. A serial dilution of 100, 33, 11, 3.7 and 1.2 nM was used to measure the binding of DARPin protein #12, DARPin protein #13 and DARPin protein #14 to bio.hCD123. For all described measurements, an association of 120 s and dissociation of 1200 s using a constant flow of 100 μl/min were applied. The CD123 target was regenerated with two different conditions (10 mM Glycine pH2.0 and 4M MgCl2) each applied for 30s. The signals were double referenced against interspot and the running buffer (PBST-PBS pH 7.4 containing 0.005% Tween 20®) treated control lane A6. The 1:1 Langmuir model was used for the fitting.
KD values were calculated from the estimated on- and off-rates using standard procedures known to the person skilled in the art. The values in Table 2b are averages of multiple replicates.

Binder	Kd [1] [nM]	EC50 [2] [nM]	Kd [3] [nM]
DARPin® protein #4 (in TCE format) (designed binder, not shown: small tags and cut ends) MRGSHHHHHHGSDLGKKLLQAARAGQLDEVRELLKAGADVNAKDEYGATPLHLAAYSGHLEIVEVLLKAGADVNAKDEWGRTPLHVAALSGHLEIVEVLLKAGADVNAKDHQGRTPLHLAALWGHLEIVEVLLKAVADVNAQDKSGKTPADLAARAGHQDIAEVLQKAA	45	–	–
DARPin® protein #8 (in TCE format) (designed binder, not shown: small tags and cut ends) MRGSHHHHHHGSDLGKKLLNAAHIGQDDEVRILLAAGADVNAKDIVGKTPLHIAAWLGHLEIVEVLLKAGADVNAKDDHGWTPLHIAAHVGHLEIVEVLLKAGADVNAQDNAGNTPADLVAFQGHEDIAEVLQKAA	1	–	–
DARPin® protein #9 (in TCE format) (designed binder, not shown: small tags and cut ends) MRGSHHHHHHGSDLGWKLLDAAEIGQDDEVRILLAAGADVNAKDKQGITPLHIAAAHGHLEIVEVLLKAGADVNAKDEIGRTPLHLAAFKGHLEIVEVLLKAGADVNAQDIIGETPADLAAVRGHEDIAEVLQKAA	2.1	–	–
DARPin® protein #3 (monospecific format) (designed binder) DLGKKLLQAARAGQLDEVRELLKAGADVNAKDQYGRTPLHLAAIKGHLEIVEVLLKAGADVNAKDSLGYTPLHLAAVEGPLEIVEVLLKAGADVNAKDAYGQTPLHIAAAWGHLEIVEVLLKAVADVNAQDKSGKTPADLAARAGHQDIAEVLQKAA	–	77	–
DARPin® protein #9 (monospecific format) (designed binder) DLGWKLLDAAEIGQDDEVRILLAAGADVNAKDKQGITPLHIAAAHGHLEIVEVLLKAGADVNAKDEIGRTPLHLAAFKGHLEIVEVLLKAGADVNAQDIIGETPADLAAVRGHEDIAEVLQKAA	–	7.9	–
DARPin® protein #12 (designed binder) DLGWKLLDAAEIGQLDEVRILLKAGADVNAKDKQGITPLHIAAAHGHLEIVEVLLKAGADVNAKDEIGRTPLHLAAFKGHLEIVEVLLKAGADVNAQDIIGETPADLAAVRGHQDIAEVLQKAA	–	3.2	0.49
DARPin® protein #7 (in TCE format) (designed binder, not shown: small tags and cut ends) MRGSHHHHHHGSDLGKKLLQAARAGQLDEVRELLKAGADVNAKDEYGLTPLHLAAEFGHLEIVEVLLKAGADVNAKDANGHTPLHLAAAYDHLEIVEVLLKAGADVNAKDTSGKTPLHLAAQYGHLEIVEVLLKAGADVNAQDKSGKTPADLAARAGHQDIAEVLQKAA	0.93	–	–
DARPin® protein #3 (in TCE format) (designed binder, not shown: small tags and cut ends) MRGSHHHHHHGSDLGKKLLQAARAGQLDEVRELLKAGADVNAKDQYGRTPLHLAAIKGHLEIVEVLLKAGADVNAKDSLGYTPLHLAAVEGPLEIVEVLLKAGADVNAKDAYGQTPLHIAAAWGHLEIVEVLLKAVADVNAQDKSGKTPADLAARAGHQDIAEVLQKAA	0.52	–	–
DARPin® protein #13 (designed binder) DLGKKLLEAALEGQLDEVRELLKAGADVNAKDQEGYTPLHLAAALGHLEIVEVLLKAGADVNAKDQIGRTPLHLAAYKGHLEIVEVLLKAGADVNAQDIIGQTPADLAAQRGHQDIAEVLQKAA	–	0.41	0.02
DARPin® protein #2 (designed binder) DLGKKLLEAALEGQLDEVRELLKAGADVNAKDQEGYTPLHLAAALGHLEIVEVLLKAGADVNAKDSIGRTPLHLAAYKGHLEIVEVLLKAGADVNAQDLLGETPADLAAEQGHQDIAEVLQKAA	–	29	–
DARPin® protein #14 (designed binder) DLGKKLLQAALEGQLDEVRELLKAGADVNAKDIEGYTPLHLAAALGHLEIVEVLLKAGADVNAKDQIGRTPLHLAAYKGHLEIVEVLLKAGADVNAQDIIGQTPADLAAQRGHQDIAEVLQKAA	–	1.3	0.02
DARPin® protein #5 (in TCE format) (designed binder, not shown: small tags and cut ends) MRGSHHHHHHGSDLGKKLLKAALLGQDDEVRELLKAGADVNAKDRFGYTPLHLAAWTGHLEIVEVLLKAGADVNAKDAYGWTPLHIAAHSGHLEIVEVLLKAGADVNAQDLEGETPADLAAAQGHEDIAEVLQKAA	8.5	–	–
DARPin® protein #1 (in TCE format) (designed binder, not shown: small tags and cut ends) MRGSHHHHHHGSDLGKKLLEAALEGQDDEVRELLKAGADVNAKDQEGYTPLHLAAALGHLEIVEVLLKAGADVNAKDSIGRTPLHLAAYKGHLEIVEVLLKAGADVNAQDLLGETPADLAAEQGHEDIAEVLQKAA	12	–	–
DARPin® protein #6 (in TCE format) (designed binder, not shown: small tags and cut ends) MRGSHHHHHHGSDLGEKLLEAALEGQDDEVRELLKAGADVNAKDQEGYTPLHLAAALGHLEIVEVLLKAGADVNAKDSIDRTPLHLAAYKGHLEIVEVLLKAGADVNAQDAAGQTPADLAAALGHEDIAEVLQKAA	4.5	–	–
